Variants at the floor of the assay were thinned out.
How the values were obtained:
biotinyl-Met-oxazolone = test: self-aminoacylation, catalytic enhancement (BMO) (fold over background); higher = more active; k-Seq, kA / k0A0; sequences stand for … in GGGAAUGGAUCCACAUCUACGAAUUC…UUCACUGCAGACUUGACGAAGCUG
In short: (§1)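 Each biotinyl-aminoacyl-oxazolone, at 2–1250 μM, was incubated with mutagenized RNA pools (0.43 μM) carrying a 21-nt variable region. The 50 μL reactions contained HEPES/NaCl/KCl/MgCl2/CaCl2 buffer with 5% acetonitrile at pH 6.9–7.0 and ran for 90 minutes at room temperature. After streptavidin capture, RNA was measured by qPCR in triplicate and by Illumina sequencing, and catalytic enhancement was calculated as median kA over the uncatalyzed rate from a pseudo-first-order fit of per-sequence fraction reacted.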

biotinyl-Ile-oxazolone = test: self-aminoacylation, catalytic enhancement (BIO) (fold over background); higher = more active; k-Seq, kA / k0A0; sequences stand for … in GGGAAUGGAUCCACAUCUACGAAUUC…UUCACUGCAGACUUGACGAAGCUG
In short: as §1

biotinyl-Val-oxazolone = test: self-aminoacylation, catalytic enhancement (BVO) (fold over background); higher = more active; k-Seq, kA / k0A0; sequences stand for … in GGGAAUGGAUCCACAUCUACGAAUUC…UUCACUGCAGACUUGACGAAGCUG
In short: as §1

biotinyl-Phe-oxazolone = test: self-aminoacylation, catalytic enhancement (BFO) (fold over background); higher = more active; k-Seq, kA / k0A0; sequences stand for … in GGGAAUGGAUCCACAUCUACGAAUUC…UUCACUGCAGACUUGACGAAGCUG
In short: as §1

biotinyl-Leu-oxazolone = test: self-aminoacylation, catalytic enhancement (BLO) (fold over background); higher = more active; k-Seq, kA / k0A0; sequences stand for … in GGGAAUGGAUCCACAUCUACGAAUUC…UUCACUGCAGACUUGACGAAGCUG
In short: as §1

biotinyl-Trp-oxazolone = test: self-aminoacylation, catalytic enhancement (BWO) (fold over background); higher = more active; k-Seq, kA / k0A0; sequences stand for … in GGGAAUGGAUCCACAUCUACGAAUUC…UUCACUGCAGACUUGACGAAGCUG
In short: as §1

| Sequence | self-aminoacylation (biotinyl-Met-oxazolone) | self-aminoacylation (biotinyl-Ile-oxazolone) | self-aminoacylation (biotinyl-Val-oxazolone) | self-aminoacylation (biotinyl-Phe-oxazolone) | self-aminoacylation (biotinyl-Leu-oxazolone) | self-aminoacylation (biotinyl-Trp-oxazolone) |
| --- | --- | --- | --- | --- | --- | --- |
| AUUACUCUGGUGAUCGAGUGA [Fam2.1 aminoacylation ribozyme variant] | 5.34 | 2.92 | 2.57 | 21.8 | 5.72 | 6.39 |
| AUCCUCCUAGGUCAUCGGGUG [Fam2.2 aminoacylation ribozyme variant] | 11.8 | 6.79 | 7.4 | 68.5 | 12.9 | 9.65 |
| CCACACUUCAGGCAAUCGAUC [Fam1B.1 aminoacylation ribozyme variant] | 0.634 | 0.813 | 0.892 | 0.731 | 0.591 | 0.804 |
| AUGACCCUGGUCAUCGAAUGA [Fam2.1 aminoacylation ribozyme variant] | 1.46 | 1.59 | 1.35 | 6.66 | 2.06 | 1.44 |
| AUAACCCUGGGCAUCGAGUGA [Fam2.1 aminoacylation ribozyme variant] | 5.93 | 3 | 2.59 | 33.7 | 6 | 6.57 |
| AUUUACCUAAGUCAUCGGGUG [Fam2.2 aminoacylation ribozyme variant] | 7.89 | 4.85 | 4.66 | 64.2 | 11.1 | 7.89 |
| CUACUUCAAACAACCGCUCUG [Fam1A.1 aminoacylation ribozyme variant] | 0.774 | 0.776 | 0.769 | 0.457 | 0.547 | 0.619 |
| AAGCUUUCUAAUAGUCGCAAG [Fam3.1 aminoacylation ribozyme variant] | 1.44 | 2.02 | 1.71 | 3.08 | 1.81 | 1.93 |
| AUUACCCUGGUCAUCGCGUUA [Fam2.1 aminoacylation ribozyme variant] | 2.71 | 2.27 | 2.32 | 12.7 | 2.73 | 4.12 |
| AAGAUUGCUAGUAGUCGCAAG [Fam3.1 aminoacylation ribozyme variant] | 1.83 | 1.36 | 1.61 | 1.28 | 1.89 | 1.48 |
| AUUACCCAGGUCAUCUAGUGA [Fam2.1 aminoacylation ribozyme variant] | 10.7 | 4.62 | 5.97 | 59.3 | 9.76 | 12.2 |
| CAGUUUGUUAAUAGUCGCAAG [Fam3.1 aminoacylation ribozyme variant] | 1.74 | 1.57 | 1.42 | 2.25 | 1.64 | 1.37 |
| ACGUUUGCUAAUACUCGCAAG [Fam3.1 aminoacylation ribozyme variant] | 0.968 | 1.12 | 0.9 | 1.88 | 0.909 | 0.897 |
| GCACACUUUAAGCAAUCGGUC [Fam1B.1 aminoacylation ribozyme variant] | 1.04 | 1.3 | 1.17 | 1.39 | 1.11 | 1.44 |
| AUUCACCUUGGCCAUCGGGUG [Fam2.2 aminoacylation ribozyme variant] | 4.02 | 2.9 | 3.88 | 31.6 | 4.98 | 4.95 |
| AUGACCCUAGUCAUCGAGUGA [Fam2.1 aminoacylation ribozyme variant] | 6.07 | 3.13 | 3.27 | 26.6 | 5.61 | 7.34 |
| CUGCACCUAGGUCAUCGGGUG [Fam2.2 aminoacylation ribozyme variant] | 7.52 | 3.76 | 5.11 | 60 | 7.81 | 6.48 |
| AUUCACCUAGUUCAUGGGGUG [Fam2.2 aminoacylation ribozyme variant] | 8.55 | 4.31 | 4.43 | 66 | 10.6 | 7.05 |
| AUUACCCUCGUGAUCGAGUGA [Fam2.1 aminoacylation ribozyme variant] | 10.4 | 4.47 | 4.09 | 70.3 | 11.6 | 10.8 |
| AUUACCCUGGUCAUUGAGUGU [Fam2.1 aminoacylation ribozyme variant] | 4.42 | 2.42 | 2.78 | 18.9 | 4.72 | 5.6 |
| AAGUUUACUAACAGUCGCAAG [Fam3.1 aminoacylation ribozyme variant] | 1.48 | 1.58 | 1.63 | 2.91 | 1.95 | 1.38 |
| CGACACUUCAUGCAAUCGGUC [Fam1B.1 aminoacylation ribozyme variant] | 0.971 | 1.05 | 1.17 | 1.34 | 0.932 | 0.973 |

| Sequence | self-aminoacylation (biotinyl-Met-oxazolone) | self-aminoacylation (biotinyl-Ile-oxazolone) | self-aminoacylation (biotinyl-Val-oxazolone) | self-aminoacylation (biotinyl-Phe-oxazolone) | self-aminoacylation (biotinyl-Leu-oxazolone) | self-aminoacylation (biotinyl-Trp-oxazolone) |
| --- | --- | --- | --- | --- | --- | --- |
| AUUCACCUAGUUCAUCGGCUG [Fam2.2 aminoacylation ribozyme variant] | 1.27 | 1.36 | 1.55 | 4.73 | 1.57 | 1.03 |
| CUACUUCAAACAUUCGAUCUG [Fam1A.1 aminoacylation ribozyme variant] | 0.593 | 0.645 | 0.731 | 0.62 | 0.561 | 0.44 |
| AAGUUUGCUGGUAGUCGCAAG [Fam3.1 aminoacylation ribozyme variant] | 0.778 | 0.97 | 0.86 | 1.12 | 0.96 | 0.864 |
| AGUACCCUGGUCAUCUAGUGA [Fam2.1 aminoacylation ribozyme variant] | 7.51 | 3.73 | 3.93 | 47.9 | 8.87 | 8.37 |
| GCUACCCUGGUCAUCGAGUGA [Fam2.1 aminoacylation ribozyme variant] | 11.4 | 6.27 | 6.39 | 29.5 | 12.3 | 15.5 |
| AUUACCCUGGUCAUCGUGUGA [Fam2.1 aminoacylation ribozyme variant] | 3.01 | 1.58 | 1.85 | 17.2 | 3.08 | 3.41 |
| AAGUUUGCAAAUACUCGCAAG [Fam3.1 aminoacylation ribozyme variant] | 0.701 | 0.898 | 0.798 | 2.14 | 0.897 | 0.774 |
| CCACAAUUCAAGCAAUCGGCC [Fam1B.1 aminoacylation ribozyme variant] | 4.55 | 4.08 | 4.38 | 5.63 | 3.52 | 3.88 |
| CCACAAUUCAUGCAAUCGGUC [Fam1B.1 aminoacylation ribozyme variant] | 1.1 | 1.25 | 1.41 | 1.19 | 1.16 | 0.87 |
| CUACUUCAAAAAAUCGGACUG [Fam1A.1 aminoacylation ribozyme variant] | 0.652 | 0.922 | 0.539 | 3.47 | 0.733 | 2.3 |
| AUUCACCUAGGACAUCGGGCG [Fam2.2 aminoacylation ribozyme variant] | 2.2 | 2.31 | 2.38 | 15.1 | 2.79 | 2.27 |
| AUACCCCUAGGUCAUCGGGUG [Fam2.2 aminoacylation ribozyme variant] | 8.28 | 5.22 | 5.95 | 71.2 | 10.7 | 7.88 |
| CCAGACAUCAAGCAAUCGGUC [Fam1B.1 aminoacylation ribozyme variant] | 0.825 | 0.911 | 0.993 | 1.06 | 0.896 | 0.802 |
| AUUACCCGGGUCAUCCAGUGA [Fam2.1 aminoacylation ribozyme variant] | 4.59 | 3.39 | 3.05 | 28.6 | 4.86 | 5.93 |
| CUACUUCAAACAAUCCGUCAG [Fam1A.1 aminoacylation ribozyme variant] | 0.684 | 0.951 | 0.934 | 0.797 | 0.613 | 0.643 |
| AUUCACCUAAGUCCUCGGGUG [Fam2.2 aminoacylation ribozyme variant] | 7.52 | 4.5 | 4.11 | 45.8 | 10.1 | 6.98 |
| CUUCUUCAAACAAUCGCUCUG [Fam1A.1 aminoacylation ribozyme variant] | 0.85 | 0.783 | 0.928 | 1.72 | 0.823 | 1.55 |
| UAGUUUGCUAAUAGUCGCCAG [Fam3.1 aminoacylation ribozyme variant] | 1.69 | 1.47 | 1.2 | 1.74 | 1.7 | 1.16 |
| CCACACUUCAAGCCAUCGGUC [Fam1B.1 aminoacylation ribozyme variant] | 0.95 | 0.995 | 1.24 | 0.854 | 0.986 | 0.932 |
| UUACGUCAAACAAUCGGUCUG [Fam1A.1 aminoacylation ribozyme variant] | 1.99 | 1.98 | 1.68 | 6.37 | 1.58 | 2.38 |
| AUUUCACUGGUCAUCGAGUGA [Fam2.1 aminoacylation ribozyme variant] | 4.7 | 2.99 | 2.85 | 19.9 | 4.92 | 6.42 |

From the supplement of paper PMC9233669
